Source: paper PMC9305271

How the values were obtained:
[1] = biological target: intermediate horseshoe bat ACE2 (bACE2-Ra), peptide domain, residues 19-615 (Rhinolophus affinis (intermediate horseshoe bat)); test: SPR
[2] = biological target: bACE2-Ra-eGFP, full length, on BHK-21 cells (Rhinolophus affinis (intermediate horseshoe bat)); test: flow cytometry on cells
[3] = biological target: intermediate horseshoe bat ACE2 (bACE2-Ra), peptidase domain, residues 19-615 (Rhinolophus affinis (intermediate horseshoe bat)); test: SPR

Row | Substance | Kd [1] [nM] | double-positive rate [2] [%] | Kd [3] [nM]
1 | SARS-CoV-2 receptor-binding domain (RBD) (from UniProt P0DTC2 319-541) (domain or fragment) | 448 | 31.6 | 
2 | SARS-CoV-2 receptor-binding domain (prototype), residues 319-541 (from UniProt P0DTC2 319-541) (domain or fragment) |  |  | 547
